# Measurements from patent US20110177084A1 (RIKEN, published 2011).
# T1: mouse Mincle (Macrophage inducible C-type lectin) (mouse, UniProt Q9R0Q8 1-214)
# T1 construct: whole, on cells; Expressed from cDNA in 293T, 2B4 and RBL-2H3 cells, or endogenous in mouse peritoneal macrophages; also called Clec4e; Clecsf9
# T1 sequence (looked up): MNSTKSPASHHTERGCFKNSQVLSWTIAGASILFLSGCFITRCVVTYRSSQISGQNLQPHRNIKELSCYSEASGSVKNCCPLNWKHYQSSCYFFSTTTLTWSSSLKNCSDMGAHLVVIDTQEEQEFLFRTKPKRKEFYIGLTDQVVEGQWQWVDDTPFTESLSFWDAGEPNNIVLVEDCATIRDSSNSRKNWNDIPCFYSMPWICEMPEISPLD
# T2: High mobility group box 1 (HMGB1) (UniProt P63158 1-215)
# T2 sequence (looked up): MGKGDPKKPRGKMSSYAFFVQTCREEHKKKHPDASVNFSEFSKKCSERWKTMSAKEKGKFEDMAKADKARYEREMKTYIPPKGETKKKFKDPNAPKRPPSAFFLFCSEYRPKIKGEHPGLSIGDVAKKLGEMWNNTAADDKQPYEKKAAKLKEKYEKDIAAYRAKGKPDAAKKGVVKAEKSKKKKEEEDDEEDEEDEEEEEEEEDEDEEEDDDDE
# B1: spliceosome-binding protein 130 (SAP130) from 2B4 cell lysate (ligand, UniProt Q921M3 1-1217, looked up)
# chain: MFLYNLTLQRATGISFAIHGNFSGTKQQEIVVSRGKILELLRPDPNTGKVHTLLTVEVFGVIRSLMAFRLTGGTKDYIVVGSDSGRIVILEYQPSKNMFEKIHQETFGKSGCRRIVPGQFLAVDPKGRAVMISAIEKQKLVYILNRDAAARLTISSPLEAHKANTLVYHVVGVDVGFENPMFACLEMDYEEADNDPTGEAAANTQQTLTFYELDLGLNHVVRKYSEPLEEHGNFLITVPGGSDGPSGVLICSENYITYKNFGDQPDIRCPIPRRRNDLDDPERGMIFVCSATHKTKSMFFFLAQTEQGDIFKITLETDEDMVTEIRLKYFDTVPVAAAMCVLKTGFLFVASEFGNHYLYQIAHLGDDDEEPEFSSAMPLEEGDTFFFQPRPLKNLVLVDELDSLSPILFCQIADLANEDTPQLYVACGRGPRSSLRVLRHGLEVSEMAVSELPGNPNAVWTVRRHIEDEFDAYIIVSFVNATLVLSIGETVEEVTDSGFLGTTPTLSCSLLGDDALVQVYPDGIRHIRADKRVNEWKTPGKKTIVKCAVNQRQVVIALTGGELVYFEMDPSGQLNEYTERKEMSADVVCMSLANVPPGEQRSRFLAVGLVDNTVRIISLDPSDCLQPLSMQALPAQPESLCIVEMGGTEKQDELGERGSIGFLYLNIGLQNGVLLRTVLDPVTGDLSDTRTRYLGSRPVKLFRVRMQGQEAVLAMSSRSWLSYSYQSRFHLTPLSYETLEFASGFASEQCPEGIVAISTNTLRILALEKLGAVFNQVAFPLQYTPRKFVIHPESNNLIIIETDHNAYTEATKAQRKQQMAEEMVEAAGEDERELAAEMAAAFLNENLPESIFGAPKAGNGQWASVIRVMNPIQGNTLDLVQLEQNEAAFSVAVCRFSNTGEDWYVLVGVAKDLILSPRSVAGGFVYTYKLVNNGEKLEFLHKTPVEEVPAAIAPFQGRVLIGVGKLLRVYDLGKKKLLRKCENKHIANYISGIQTIGHRVIVSDVQESFIWVRYKRNENQLIIFADDTYPRWVTTASLLDYDTVAGADKFGNICVVRLPPNTNDEVDEDPTGNKALWDRGLLNGASQKAEVIMNYHVGETVLSLQKTTLIPGGSESLVYTTLSGGIGILVPFTSHEDHDFFQHVEMHLRSEHPPLCGRDHLSFRSYYFPVKNVIDGDLCEQFNSMEPNKQKNVSEELDRTPPEVSKKLEDIRTRYAF
# notes: also called Sf3b3; 130-kD protein
# B2: endogenous FcRγ of mouse peritoneal macrophages (receptor, UniProt P20491 19-86, looked up)
# chain: LGEPQLCYILDAVLFLYGIVLTLLYCRLKIQVRKAAIASREKADAVYTGLNTRSQETYETLKHEKPPQ
# notes: whole, on cells; Co-immunoprecipitated from the lysate of thioglycolate-induced, LPS-stimulated peritoneal macrophages
# B3: hIgG1 Fc-Mincle fusion protein (Ig-Mincle) (Fc fusion, mouse, UniProt Q9R0Q8 46-214, looked up)
# chain: TYRSSQISGQNLQPHRNIKELSCYSEASGSVKNCCPLNWKHYQSSCYFFSTTTLTWSSSLKNCSDMGAHLVVIDTQEEQEFLFRTKPKRKEFYIGLTDQVVEGQWQWVDDTPFTESLSFWDAGEPNNIVLVEDCATIRDSSNSRKNWNDIPCFYSMPWICEMPEISPLD
# notes: range 46-214; also called soluble Mincle protein; not shown: human IgG1 Fc region (hIgG Fc lacking a termination codon, from pME18S-SLAMsig-hIgG Fc)
# How the values were obtained:
# [1] = biological target: T3, hIgG1 Fc (Ig) (human, UniProt P01857-1 99-330 = IgG part, limits assumed); test: pull-down from 2B4 dead cell lysate with Ig on Protein G Sepharose, silver staining, no Ca2+
# T3 construct: domain: hIgG1 Fc; Control for Ig-Mincle; also called control Ig
# Source text: A 2B4 dead cell lysate was pulled down using the indicated Sepharose beads and blotted with anti-SAP130, anti-DDB1, anti-HMGB1 and anti-hIgG-HRP.
# [2] = biological target: T1, mouse Mincle (Macrophage inducible …); test: immunoprecipitation with anti-Mincle polyclonal antibody from macrophage lysate, anti-FcRγ blot
# [3] = biological target: T2, High mobility group box 1 (HMGB1); test: pull-down from 2B4 cell lysate, immunoblot with anti-HMGB1
# Source text: A 2B4 dead cell lysate was pulled down using the indicated Sepharose beads and blotted with anti-SAP130, anti-DDB1, anti-HMGB1 and anti-hIgG-HRP. […] Live (L) or dead (D) 2B4 cells were pulled down using the indicated beads and blotted with the indicated antibodies.
# [4] = biological target: damaged-DNA binding protein 1 (DDB1) (UniProt Q3U1J4 2-1140); test: pull-down from 2B4 dead cell lysate, immunoblot with anti-DDB1
# Chain of damaged-DNA binding protein 1 (DDB1) (Q3U1J4 2-1140 limits assumed): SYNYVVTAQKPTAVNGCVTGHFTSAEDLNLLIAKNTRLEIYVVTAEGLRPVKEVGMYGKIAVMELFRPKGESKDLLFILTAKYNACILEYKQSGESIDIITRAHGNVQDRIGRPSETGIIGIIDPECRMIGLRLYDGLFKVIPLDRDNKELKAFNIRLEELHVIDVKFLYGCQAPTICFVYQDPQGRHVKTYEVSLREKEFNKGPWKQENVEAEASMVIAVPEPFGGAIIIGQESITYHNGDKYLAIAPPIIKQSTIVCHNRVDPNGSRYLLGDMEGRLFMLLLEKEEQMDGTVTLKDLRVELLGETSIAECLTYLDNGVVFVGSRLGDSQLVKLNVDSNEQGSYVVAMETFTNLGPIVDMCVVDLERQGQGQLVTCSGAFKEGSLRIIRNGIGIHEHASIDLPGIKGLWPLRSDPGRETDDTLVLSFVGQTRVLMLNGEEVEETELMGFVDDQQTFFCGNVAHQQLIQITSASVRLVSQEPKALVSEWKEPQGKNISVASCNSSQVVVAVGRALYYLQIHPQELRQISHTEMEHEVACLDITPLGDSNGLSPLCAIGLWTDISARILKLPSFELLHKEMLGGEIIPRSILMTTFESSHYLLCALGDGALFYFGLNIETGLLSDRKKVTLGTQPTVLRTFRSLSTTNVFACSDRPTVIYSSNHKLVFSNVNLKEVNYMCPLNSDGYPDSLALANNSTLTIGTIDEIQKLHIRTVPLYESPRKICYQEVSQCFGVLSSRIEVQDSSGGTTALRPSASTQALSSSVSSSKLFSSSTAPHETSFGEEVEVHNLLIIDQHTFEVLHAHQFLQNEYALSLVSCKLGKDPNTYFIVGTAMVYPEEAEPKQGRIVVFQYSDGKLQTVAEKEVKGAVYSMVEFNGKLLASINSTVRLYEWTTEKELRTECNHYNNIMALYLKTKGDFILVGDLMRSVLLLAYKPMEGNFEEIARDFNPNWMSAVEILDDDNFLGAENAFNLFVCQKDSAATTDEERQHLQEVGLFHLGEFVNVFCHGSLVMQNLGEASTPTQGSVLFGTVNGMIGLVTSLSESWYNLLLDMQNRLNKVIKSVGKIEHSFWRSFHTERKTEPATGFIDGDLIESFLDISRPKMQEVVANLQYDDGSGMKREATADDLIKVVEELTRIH
# Source text: The cells were also stained with Annexin V-FITC (AnV) and propidium iodide (PI). […] A 2B4 dead cell lysate was pulled down using the indicated Sepharose beads and blotted with anti-SAP130, anti-DDB1, anti-HMGB1 and anti-hIgG-HRP. […] Live (L) or dead (D) 2B4 cells were pulled down using the indicated beads and blotted with the indicated antibodies.
binder,measurement,setting,value
B1,binding result,[1],no binding
B2,binding result,[2],binds
B3,binding result,[3],no binding
same,binding result,[4],no binding
